Results taken from publication PMC4117764.

Target: GST-tagged p21C-terminal peptide
Assay: pull-down

With “proliferating cell nuclear antigen (PCNA), endogenous (from UniProt P12004 1-261) (natural protein)” the extent of PCNA depletion was greater than 95%.
